Values of other authors, collected in patent US20070212358A1, “Compositions and Methods for Effecting Controlled Posterior Vitreous Detachment” (priority 2006, published 2007).

Tested on: vitreoretinal interface
Details: rabbit eyes

B1: plasmin (protein, UniProt P00747 20-580; P00747 581-810, looked up)
Plasmin heavy chain A: EPLDDYVNTQGASLFSVTKKQLGAGSIEECAAKCEEDEEFTCRAFQYHSKEQQCVIMAENRKSSIIIRMRDVVLFEKKVYLSECKTGNGKNYRGTMSKTKNGITCQKWSSTSPHRPRFSPATHPSEGLEENYCRNPDNDPQGPWCYTTDPEKRYDYCDILECEEECMHCSGENYDGKISKTMSGLECQAWDSQSPHAHGYIPSKFPNKNLKKNYCRNPDRELRPWCFTTDPNKRWELCDIPRCTTPPPSSGPTYQCLKGTGENYRGNVAVTVSGHTCQHWSAQTPHTHNRTPENFPCKNLDENYCRNPDGKRAPWCHTTNSQVRWEYCKIPSCDSSPVSTEQLAPTAPPELTPVVQDCYHGDGQSYRGTSSTTTTGKKCQSWSSMTPHRHQKTPENYPNAGLTMNYCRNPDADKGPWCFTTDPSVRWEYCNLKKCSGTEASVVAPPPVVLLPDVETPSEEDCMFGNGKGYRGKRATTVTGTPCQDWAAQEPHRHSIFTPETNPRAGLEKNYCRNPDGDVGGPWCYTTNPRKLYDYCDVPQCAAPSFDCGKPQVEPKKCPGR
Plasmin light chain B: VVGGCVAHPHSWPWQVSLRTRFGMHFCGGTLISPEWVLTAAHCLEKSPRPSSYKVILGAHQEVNLEPHVQEIEVSRLFLEPTRKDIALLKLSSPAVITDKVIPACLPSPNYVVADRTECFITGWGETQGTFGAGLLKEAQLPVIENKVCNRYEFLNGRVQSTELCAGHLAGGTDSCQGDSGGPLVCFEKDKYILQGVTSWGLGCARPNKPGVYVRVSRFVTWIEGVMRNN
modifications: Plasmin
- posterior vitreous detachment (PVD) in eyes treated with plasmin (plasmin treatment): some areas of PVD
- detachment of the vitreous after plasmin treatment and vitrectomy (plasmin treatment with subsequent vitrectomy): substantially detached
